Assay results from patent publication US9304127B2, “Anti-adrenomedullin (ADM) antibody or anti-ADM antibody fragment for use in therapy” (ADRENOMED AG, priority 2011, dated 2016).

Biological target: T1, hADM (Homo sapiens, UniProt P35318)
T1 construct: comprises the amino acids 95 to 146 of pre-proADM; host or cells: added to human citrate plasma
T1 sequence (P35318 95-146): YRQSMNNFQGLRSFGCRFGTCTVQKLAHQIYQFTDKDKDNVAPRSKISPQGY
Assay: Stability of human Adrenomedullin in human citrate plasma (hADM immunoassay)
Format: in vitro ADME
Conditions: 24° C., hADM 10 nM, NT-H 100 μg/ml

half life of hADM in the presence of NT-H: 18.3 h
B1: NT-H: murine monoclonal antibody raised against human ADM region 1-21 (SEQ ID: 15) (antibody, V domains shown)
VH: QVQLQQSGAELMKPGASVKISCKATGYTFSRYWIEWVKQRPGHGLEWIGEILPGSGSTNYNEKFKGKATITADTSSNTAYMQLSSLTSEDSAVYYCTEGYEYDGFDYWGQGTTLTVSS
VL: DVLLSQTPLSLPVSLGDQATISCRSSQSIVYSNGNTYLEWYLQKPGQSPKLLIYRVSNRFSGVPDRFSGSGSGTDFTLKISRVEAEDLGVYYCFQGSHIPYTFGGGTKLEIK
